Source: the domain aggregation screens of Martell et al. (2025)

Assay: soluble fraction after stress (log2 fold change); higher = more stays soluble; pooled small domains, quantitative proteomics
Conditions: stress: 75 degC
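Further: 20 min heating vs room temperature control held 20 min.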

First: HMSIGPQMAGRRVLSGDLIARLEAFEGTVVLGRGVAREDALLIATQAGHVRWEPASRRLWVDSTA
Second: HMSIHPRDKADLGTALSKWKKGALDDKQLELEVARVFMRTYGKKLEGQALNKAVAAWVAALTQSKK
The “soluble fraction (log2)” value of the first is lower: -2.38 for the first, -0.171 for the second.

Going from “HMSINIDEEKKILGPNADQIIKGITTWGQGLVSKGIWSDADFEEFKIFAATGNGINALNKVRKYY” to “HMSIQMPDLSITPVTDAKKKIESLQLQYKEVGEYNDSVIAGYVIRTEPASGSYLNEDEEVIIYVSKG”, the “soluble fraction (log2)” value falls from -0.338 to -0.776.

First: HMSISEFNYTEFNGLVEKGQVSEVTISGREIEGRLTSGESFKTYSPETDNSALVGDLLKNNVKINGKP
Second: HMSITKDNLSIGTNIRISGFSDIGRIISIPNKGNQVQVQIGSAKMNIKINSIVEIIKEEKDFNKNISN
The “soluble fraction (log2)” value of the first is higher: 0.0159 for the first, -1.48 for the second.

Compared with “HMSIYMNIYNEFKKYIIANVYKYDDKLPSVRSIALEYGINPNTVQRAFQLLEDEGYIKTISKKGVYVNYR”, “HMSKAYLSVESNISGARVFVDGQKEGTTPLSDVLLSAGEHLILVKKQGYETYQKRVRFQKGRSMSLYVDLS” is higher in “soluble fraction (log2)” value: -0.745 for the first, -0.0864 for the second.

Compared with “HMSKDQKKFFIEIVSIRGFGSQIGISILNKLSIPQIINAIKTQNKKEISSIPGIGQKMTERLILELNNKFK”, “HMSKININTITESELKELPISTVKQKAIQDYLIDRGFISNIYDLLDIKEITSDDVSLLKKVVNVKLPY” is lower in “soluble fraction (log2)” value: -0.183 for the first, -0.489 for the second.

Going from “HMSKIVPVAYSQFLKDVKNGNVSQVEIRGNNIKGINNNGSSFSTYAPNDLSLIDKLEKSNVEIIVMPLE” to “HMSKKLLVLQTSDDAKAKDVLSQNGYQLDDGDKLSIIETEQTKMADVIKLLSDNAIDIEDVQHVH”, the “soluble fraction (log2)” value rises from -0.368 to 0.14.

Going from “HMSKLQETEIPVALEVEKIPGLSNELKQKLLKIKPQTIGQASRISGITPAAISILMIYIKKNESISAVK” to “HMSKLQKTKYAGVYFTEDTQTRVKTYVARIVLAGIIDTEVVVGHSNDQHRTNAAIAYQRRLELIQEAKN”, the “soluble fraction (log2)” value falls from -1.9 to -4.

First: HMSKLSLREIVKKFEEQIIQLHKRGLNHSEISREIVTKNSIDLGDSHIDSLRRAISVHLQTP
Second: HMSKPIREVAYETLKNAIVTGEIPAGSRIVETEYAERMHISRTPLREALRKLERDGLVEYVVRRGVVVRAF
The “soluble fraction (log2)” value of the first is higher: -0.755 for the first, -1.63 for the second.

Going from “HMSKPTLTLKSNAYPYNLNGERINNYLGFTYIKKGATLNYQGSKRINGQNYYYIGDGAYIKNTTVGSTNN” to “HMSKQDRRIRRTRRLLKESLIQLMQEKEFMNISVREVTERADLNRGTFYLHYQDTRHLLQDIENETL”, the “soluble fraction (log2)” value falls from -1.23 to -3.3.

Going from “HMSKQEFVDRLRVSLSGKISPASVEDNARYYEDYINTHIRLGEPEEDVLEGLGDPRLIARSIVAAESV” to “HMSKQLGFKIKTARRKLNISQGDLSKKLEISPSYLNLIESGKRKVSTDLLMKASEILNLDLKKL”, the “soluble fraction (log2)” value falls from -0.0989 to -0.966.

Going from “HMSKQQFLDELAARLREEGAELLVAENLNFYRSYIEEEVAKGRSEEEVLAELGNPALIARSILDAAGF” to “HMSKSIELMNEIKKYIEEYYLQYRQSPSTTKIAEAVGIARGTAYKYLVEMSERNMIEYDGQEISTEVTRKY”, the “soluble fraction (log2)” value falls from -0.219 to -1.43.

First: HMSKSKSEIDKDPHFWSSLFQRIGEGESLRKIAKDSKIPKSTLWAWIRNDPQLALRYSEAQQ
Second: HMSLAATLSPREIDTVRLIAVGSSNKEIARQLGIAETTVKIHVQHILRKLNLTSRVQVAVFANAEGII
The “soluble fraction (log2)” value of the first is higher: 0.0521 for the first, -0.931 for the second.

Going from “HMSLAISGRNQLHGIIEEVRSDGLLSQIYLRVGDQVLTAVITRDAVAELKLKRGDTAVAIMKSTEVMIARE” to “HMSLDLERAVALLSLPRPVGNHPEDGELVEAGIGRYGPYVKHGSKYANLPDADEVFTIGMNRAVEVLAAK”, the “soluble fraction (log2)” value falls from 0.38 to -0.109.

Going from “HMSLDTASDKELLGLIVSEPIATRVLDAFRTLDATLFRTTPAELAAAAGVSSEHAQKIKAVAEIAARMLKP” to “HMSLEDYVIIKNKTVKVYETEFDGAPVVTSSSVGQKLILVEYNDNFAKILYRAKDGLDYVGYIKRKDVYVR”, the “soluble fraction (log2)” value falls from -0.343 to -2.55.

Compared with “HMSLLLTPREASVWASEYLGKKVTSNNIIYLLNYGKIANHSTDLKENLIDKNELKIYYDSTIKSQKH”, “HMSLLQDRQRHEALAALGYYRGSVSAAWGAASVEALKAAQAALGVEVDGKWGPKTEDVIQAALGT” is higher in “soluble fraction (log2)” value: -0.755 for the first, -0.272 for the second.

Compared with “HMSLLQTRQRHEALAALGFFKGDVAAEWSAASTEALRAAQASLGIRVDGKWGPQTEDAIGKALAERQG”, “HMSLLTIDELSQATGVSVRTLRYYVSSGVLDKPTGETRNARYGTHHLDQVRNIKKLQEEGLTLNRILEIKK” is lower in “soluble fraction (log2)” value: 0.0108 for the first, -2.14 for the second.

“HMSLNHDIWVQELKEKRSGYGISQSRLAIAAGMTRQYLSDIETGKVLPSAERKAAITEALERFNPD” and “HMSLNNAHNTIFPRIIELMEMKQLENVLLIGGGIIPRKDIESLESSGVTKLYGPGTPVKETIEFITNWVK” are within 0.2 log units of each other in “soluble fraction (log2)” value: -0.348 for the first, -0.216 for the second.

First: HMSLPKVLVPTDITVSQLAKYLEVDAIAIVKKLFGLGVVASLNQRLENEQMQLLGQEFGKDIIFTEN
Second: HMSLPTSDWKRALSLFDEALSLPPDARDAWLAHTIAREPAVSPLLQKLLGAHRRVETNDILATLPR
The “soluble fraction (log2)” value of the first is lower: -1.39 for the first, -0.534 for the second.

First: HMSLQNTMANFAGGVLVLFLKPFKAGDYIVTKDGEGTVASIGLVYTTLLTIENKRIVIPNSSISNSPITN
Second: HMSLRGEKTYDEAHQKLIKSAVELFKNPLVSPEKITVSQIAKHAGVSVATAYNHFPENKLDIYGSIF
The “soluble fraction (log2)” value of the first is higher: 0.159 for the first, -0.203 for the second.

First: HMSLRVIEIFGTPQQMSARISLMDGSVTDVKVGQSIPGTSYKVASITGNGVWIQNGTAVSYTHL
Second: HMSLSDADVERLLEVAIDIESLEEREGLYYQANESEPYSGWGKLMYDSGQVERLVPYKDGRWEGLWTIW
The “soluble fraction (log2)” value of the first is lower: -2.41 for the first, -1.07 for the second.

Compared with “HMSLSISSLVFFRKNAGLTQADIATAMSITQSAVARLEKRLLSDSDVTLKTLERYAEAVGIRMHVDFEP”, “HMSLSKEEFETISKQVLELAGAGPIPVKELLQKMERTSKEKAWKVIEFLQAEDKIVPDATGRIQL” is lower in “soluble fraction (log2)” value: 0.01 for the first, -0.727 for the second.

Compared with “HMSLSKQETEFLTTFSASGKRVFTYQQATDYWQSKVAATNVLGRLVRKGWLQRLERGLYMIIPLEAGPERF”, “HMSLSPAATRSRGYPSVLLTMKAPERLVSAAGPDRRAYLVGTDPLVIELPGVKGLYKVDPDQIVFE” is higher in “soluble fraction (log2)” value: -1.71 for the first, -0.0024 for the second.

First: HMSLTEEQVDSGLKEIRLALLEADVALPVVKNFITNIKPKAIGQEIIRSTSPGQMIVKIVYDELVSIL
Second: HMSLTEESAKSLIGLTENEAVKVAAERGWTVRVAMRDGEAFMLTQDYSENRVNLTVMKTLVTAVTI
The “soluble fraction (log2)” value of the first is higher: -0.066 for the first, -3.32 for the second.

Going from “HMSLTMPKLIGMHLFQAERTLNYYGFQYKVEGPDSASVVIDQYPKEGVTVDPHYPITLKIGPSA” to “HMSLYGGYEIDIIKEEVVDAGIKLLRRRVIVADQRGISVYEGKPTFASDDQVLIKEGQYQIDKLG”, the “soluble fraction (log2)” value falls from -2.18 to -2.46.

“HMSMHVHTPNPDFKPSNTNALQEGQLVEHPKFGFGKVQKIETEGLNKKASIQFEHFGEKTLLLSFAKLRII” and “HMSMLGTEQRVLVLGPARKGEGFLMARTDNNRIVNFEGPLSLVDTMVRVKVTDVYPHSLGGQLL” are within 0.2 log units of each other in “soluble fraction (log2)” value: -1.47 for the first, -1.51 for the second.

“HMSMPDERMLTSWMMARVKAAGKTMTRDAWNEFFERSNDSMDHMDMEMEKLLSYVYDKDGITLEDVEA” and “HMSMQIILLDKVVNLGGLGDVVKVKDGYARNYLIPQGKAKRANTANLAEFEARRVELERLAAEQLAQAQA” are within 0.2 log units of each other in “soluble fraction (log2)” value: -0.223 for the first, -0.0666 for the second.

Compared with “HMSMRIDTNTLNYYVQNAQISLSVLRTKINNLDQFLSGEKQPTFNQLSEIAKKINVPTGLLLLNKS”, “HMSMSKISNLLEIMMIIQYKGLTTASELAQSLGVDKKTVYRYINSLSKANIPIYTKKGRYGGFYIDKNF” is higher in “soluble fraction (log2)” value: -2.17 for the first, -1.29 for the second.

Going from “HMSMSTVGERIKKKRKNLNFTQQELAAKLNISAQAVSKWENGVALPDLGLMPKLAQVLESTVDGLLGYQGA” to “HMSMTLSVLDDVRGLSESRRKQLFHSFGSIKKLREQSKETLMSIPYLPEKVALELYDKLHEE”, the “soluble fraction (log2)” value rises from -0.756 to -0.243.

“HMSMVGSVNKQGRPFALLRVDNLLYQVKVGDYLGQNYGRITQIDETQIALREIVQDAAGEWIERPGVLQL” and “HMSNATELVYDDGRKLLISYETLVGGYHPDLGWIRTAKTYSISTDKHIRNYFNNVTNPRVVGEDILETLKI” are within 0.2 log units of each other in “soluble fraction (log2)” value: 0.294 for the first, 0.109 for the second.

Going from “HMSNDRSYLARLQDYYAEHRALPSYASIGALLGLRSKSSVAALVARLKLAGFVESTPDRRLAPTRRFF” to “HMSNEWIEISAKTVDDAINEGLIRLGTTTDKMDVEVLEKESAGFLGFIGKHDAKIRVRFKEV”, the “soluble fraction (log2)” value rises from -4.01 to -0.0738.

Compared with “HMSNGYVTAKTTVNVRKSASESGERLGVIYQGDKLELVMNQADGWTKVKYKGQTAYVKSEFM”, “HMSNHYETLGVPRDASQEDIKRAYRRLARKLHPDVAGPGKAEEFKAVNEAYAVLSDEESRRMYDLGGDDAL” is higher in “soluble fraction (log2)” value: -1.27 for the first, 0.157 for the second.

First: HMSNIQLVENLYRLRKAHHYTQQEISDLLNISRQAYSNYETSKRTPDLDSLMRLADIYGVSLDQLVNHP
Second: HMSNLENSLNESLSLLKSNKYNEALEILKKIEIEDSRVFFLLGTIYSVMKNINLGEEFLIKASK
The “soluble fraction (log2)” value of the first is lower: -1.93 for the first, -1.64 for the second.

Going from “HMSNLGLQIVRTLTDAGKGVVFITHKLKEALTIADRINVLRRGKVVGDADPKTASESQIAEMMVGRPVQL” to “HMSNMWVWSKLSGIQWMDAWEDRFHGNPNTVITRLKTNKTVRVEVYTETEQEALDIKKLFGGSIRKLV”, the “soluble fraction (log2)” value falls from -0.0755 to -3.09.

First: HMSNRFIQFRQRAIDWLNSDRDFNAGILLLEESGFKPGVVAKLKRHGVNGPEAKKRLKFLINELVKAWA
Second: HMSNVKVYPNPTSGKLTIDAENYKGVEVYDTSGRLIVKSELRTIDLEEQSKGLYLLKVNANGTTQEFKVFK
The “soluble fraction (log2)” value of the first is lower: -1.2 for the first, -0.0433 for the second.

Compared with “HMSNYLKSVEVFDPITNKWSYVSAMKVRRGYVAVVATMDRLYAIGGYDGENYLSTVEMYNPDTN”, “HMSPAVSLITGKLGAETYYKQGLKKAKEKDYEGALDDLIKAYEFFPDKKIKTQVDKLASFLGKPPIL” is lower in “soluble fraction (log2)” value: 0.108 for the first, -0.259 for the second.

Going from “HMSPIKAGDLVKITGTKYYRGQTIPSWVKAKNWFVHSVSGDRAVINKSEDGKNAIMSPVKVSNLALVT” to “HMSPILTPDQATKAYGKDGVLYIHSNKERTIYIYDVTGRTVRILEAVEGENQINGLEKGIYFLEGQKVAV”, the “soluble fraction (log2)” value falls from 0.0902 to -1.36.

Going from “HMSPLQLGNYNTLRITRFTDHGAYLDGGDVGEILMPKTYVLPEMKPGDEVRVFVYLDQEERLVGTTET” to “HMSPPVIQQGQDVRLIYKGTGFAVSNEGKALNTAADGQVARARTGGGQTVSGIARPGGIIEIT”, the “soluble fraction (log2)” value rises from -0.622 to 0.391.

Compared with “HMSPQPPNQEAVRTRILDQAAHLFLTIGYAETTVRRIAGAVGIKAASLYHHFGSKDEVFESILIR”, “HMSPRADRSVNLDVGETVQIDDWGADGTAQIRYRGAPWTAVLRPGHTPHPGPHRVIELVGSRLLVEP” is lower in “soluble fraction (log2)” value: 0.274 for the first, 0.0352 for the second.
